Source: the supplement of paper PMC9170038

system: K4 kissing-loop RNA reporter; assay: apparent KD of K4 kissing-loop reporter; higher = weaker reporter binding; details: Eterna round: R107; input ligand: FMN 200 uM
Protocol: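 RNA-MaP round R107: designed RNA switches with theophylline, tryptophan, arginine or FMN aptamers are transcribed on-chip within common flanks. They are titrated with a labelled K4 kissing-loop RNA reporter in RNA-MaP buffer (100 mM Tris pH 7.5, 80 mM KCl, 4 mM MgCl2), without ligand or with the indicated ligand. Median apparent KD per design.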
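Also: bound reporter read as fluorescence of individual clusters on recovered sequencing chips by microscopy, with normalized cluster intensities fitted with a binding model.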

Going from “CGCCGUAAGGCGGUCGCUCCCACUCCGGAAGGAGCGCCCGCAAGGGCAGGUAGGUCGCCGGAGUGAUGUUCCGGUGGAGGGACCG [#2 Exclusion - Arginine A Attempt #7 (Inspired by Omei)]” to “UUAGCUCUAUAGAGCAAGAGGUCAACUGAUACCAGAGGCUAUAGCCUCCCUUGGCAGCGGAACGAGUGAUGUUCGAGACCUCAUU [AK6 SS Theophylline A]”, the “apparent KD of K4 kissing-loop reporter” value rises from 207 nM to 1280 nM (6.2-fold).

Going from “AUAAAUUUGUAGUGAUGUUGCAAGUUAGUCAAGGAUAUCAGGAAACUGAGAAGGUGAUAUCUCCUUUACUUGCAACUAGGAGGAG [KL-SSFMN-A11]” to “GUGCGGUGGAGGUUACCGCUACUCUGAGAAGGAGCGCAGAUGACUGCAGGUAGGUCGCUUAGAGCUUGCAGUGAUGUUGCAAGUU [Anquatbiat]”, the “apparent KD of K4 kissing-loop reporter” value rises from 88 nM to 199 nM (2.3-fold).

First: GGAGGUUGGUGCGAUACCAGACCUGCAGUGAUGUUGCGCCAAAGUGAGUGAUGUUCACCGGUCCCUUGGCAGCGCGUCCCUUUAG [Same State Theophylline B GF 15]
Second: CGGUUAUAGCAGGAUACCAGUACCCAUUAUGUACGUUUAUAGUAGAGUGAUGUUCUAAAGUACCCUUGGCAGCUUCCCGUGACCC [#23 K4 Theophylline B Exclusion]
The “apparent KD of K4 kissing-loop reporter” value of the first is 5.7-fold higher: 848 nM for the first, 150 nM for the second.

“UUAGGAGUGGGAGGAUAUCCUAAUGUGGGUGAUGUUAGCGAUGUUGAAAGUGUAGUGAUGUUGUGCGGAGAAGGUCCAGUGUUGA [BDazzled - #12 - Exc. FMN B]” and “GGGAGAAGUGGUGUUGAUUAAGAAGCGGAAGGAGCGCCGAAGAAGGCAGGUAGGUCGCCGAAAUAUAGUGAUGUUAUAUAAAGGG [ExArg.B]” are within 1.5-fold of each other in “apparent KD of K4 kissing-loop reporter” value: 197 nM for the first, 155 nM for the second.

Compared with “GGGUCUGUCGGAAGGAGCGCACUAUGGAGUGAUGUUCCAUGACCGCACAGCUUGCGGUCAGUGCAGGUAGGUCGCCGAUAGCUUU [Usquso]”, “AUUUGUUACCUUAUAGGAGUGAUGUUCUUGCGAGGACCGGUACGGCCGCCACUCGCGCUGGCGCCUAGCCUCGGACCGUUAAUUC [theeternabot_exclusion_KL_Trp_A_25]” is 2.1-fold higher in “apparent KD of K4 kissing-loop reporter” value: 277 nM for the first, 582 nM for the second.

First: CCUUUCAGUUACGAUACCAGUCUAAUAUAUUUGAUCAAUACCCUCGCCGAGUGAUGUUCGGACCCUUGGCAGCGUCUGGGACAGG [gbbymullin]
Second: CGUGCCCAGCCGGAUACCAGUGACCCGCUGGGAACCGCGGGCCCAGAGUGAUGUUCGGGACACCCUUGGCAGCCGCCUGGGCGGG [#2 Same State - Theophylline B Attempt #15 (HarryS)]
The “apparent KD of K4 kissing-loop reporter” value of the first is 1.9-fold lower: 526 nM for the first, 1020 nM for the second.

“UGAGGAGAAUAUGAUACCAGCAGAGAGAGAGAGGAAGUAUAGUGAUGUUAUAUGAGAUAAUGCCCUUGGCAGCAUAAGAAGAAGG [#19 K4 Theophylline B Same State]” and “UUUAUUAAGACGGCCGCCACUGAUUCAUAGUGAUGUUAUGAUAUAAUUUUAGUGAUAUGCAUUAGCAGGACCGGGUCAAUUAUUA [JR_ExcTryptoB_Sub017]” are within 1.5-fold of each other in “apparent KD of K4 kissing-loop reporter” value: 163 nM for the first, 158 nM for the second.

“AAAAUAAAUAGCAGUCACGGAGUGAUGUUCCGAGGACCGGUACGGCCGCCACUCGACCAUCAUAAGAUGGAAUGGCGAGACUGCA [#SwitchBubble 21 #K4Early]” and “AGUACAGACACGGCCGCCACUCAGAAGAAGAUAGUAGUGAUGUUACUGAUGAUGAGAAUAAUAAAGAGGACCGGGUGUUGUGCAA [#09 K4 Tryptophan B Same State]” are within 1.5-fold of each other in “apparent KD of K4 kissing-loop reporter” value: 134 nM for the first, 107 nM for the second.

“CAUACGAAGCAGUGAUGUUGCUUAUGAGAAGGAGCGCACGAAAGUGCAGGUAGGUCGCUCAGCCAUGUGGACGAAAACGUCCACA [whbob_SS_Arginine_A_sa112]” and “UUCUGCAUCUCGGCCGCCACUCACUAGUGAUGUUAGUAAGGAGCGACUAGACAUGUCCCGUUAUUGAGGACCGGGAGAGGCUCUU [#13 K4 Tryptophan B Exclusion]” are within 1.5-fold of each other in “apparent KD of K4 kissing-loop reporter” value: 266 nM for the first, 208 nM for the second.

Compared with “UGCAUCAGUGCCUUUGAUCUAUUCCUGGAUACCAGAUCCUACUUGAUCCCUUGGCAGCCAUACGGGAGUGAUGUUCCAUGUAUCC [theeternabot_exclusion_KL_Theo_A_43]”, “AUAAUAUUGCGAGGAUAUCCUUCCCACGUCGAAGUACCGUGCUUGAUGGAGUGAUGUUCGAUCAGAGGAGAAGGCGCGGUGUUGU [Same State FMN B GF23]” is 3.5-fold higher in “apparent KD of K4 kissing-loop reporter” value: 210 nM for the first, 734 nM for the second.

First: AACUCUCAGGCACCUGAGUGAUGUUCAGGCCGAGGACCGGUACGGCCGCCACUCGGGCCUGAGAGAGGUUAUCAAAGAUAGCCAA [Omei KL Tryp A SS A v2]
Second: AUGCAUCAGACUUGAUACGGUGAAAUAGCCCGAGGACCGGUACGGCCGCCACUCGGUCCAGUGAUGUUGGAUAAUUAAUCUAGGU [theeternabot_sameState_KL_Trp_A_34]
The “apparent KD of K4 kissing-loop reporter” value of the first is 2.8-fold higher: 561 nM for the first, 197 nM for the second.

Compared with “GGGUGGCAGGCGGCCGCCACUCUGAGCACCCACUGAGUGAUGUUCGUGGCGUAAGACUGUUCGUAGAGGACCGGGUUUGUUGUUC [Same State Tryptophan B GF 23]”, “UAAUGCAUGACGGCCGCCACUAGUACUGGAGUGAUGUUGUGGUACGGCGGCAGUAUAGGGUGGACUAGGACCGGGUCAUGCAUAU [KL-XTryp-B11 #analogue]” is 2.9-fold higher in “apparent KD of K4 kissing-loop reporter” value: 203 nM for the first, 598 nM for the second.

First: AUUUUUUUGUCAGGAUAUUAGUGUUGGUUUGGUUUGUUAGUGAUGUUGAUAUUUGUUUUAUGUAUUUAAGAAGGGAUUUAGCUGU [ppdemullin]
Second: UGUCAUUGGUCGGCCGCCACUUCGUGUGGAGUGAUGUUUUGUAGAUUGUGUUGAAAGGUAUGGUGAAGGACCGGGACCGAUGACU [FiskerMod 21 - Jieux - Same State - Tryptophan B]
The “apparent KD of K4 kissing-loop reporter” value of the first is 2.8-fold lower: 391 nM for the first, 1100 nM for the second.

Compared with “AGAUUCGACACGGCCGCCACUUCCGGUGGCUGGUGUCAUGGUGCGCGUGAGUGAUGUUUAUGUGGAAGGACCGGGUGUUGAGUCU [whbob_Ex_Tryp_B_w41]”, “GAUUCCCAAGCGGCCGCCACUUAUAGUGAUGUUAUAGGGACUGCGGAUCAGGACAAUCAUACAUAAAGGACCGGGCUAUUCUGAC [theeternabot_exclusion_KL_Trp_B_1]” is 2.3-fold lower in “apparent KD of K4 kissing-loop reporter” value: 597 nM for the first, 264 nM for the second.

Compared with “CCUAGUGAUGUUAGGUCGUGCUCCUAUGAUACCAGCGUAGUCACUCGCCCUUGGCAGCAUUCCUUAUAAGGCGGUCGGGCGCGGU [theeternabot_sameState_KL_Theo_A_34]”, “AGUGAUGUUUUUUUUAAGAGUGAUGUUUUUCGAGGACCGGUACGGCCGCCACUCGAGUGAUGAGUGCGGUGUUGUGAUGUUUAGU [ewmullin]” is 2.8-fold higher in “apparent KD of K4 kissing-loop reporter” value: 218 nM for the first, 606 nM for the second.

“UCCUAUACCCUUCCCGGACGCCGUGGAGAUACCAGCCACGUAGCGGGCCCUUGGCAGCUCGAGUGAUGUUCGAGAUCGUCAGGAU [Veteve]” was tested, and the “apparent KD of K4 kissing-loop reporter” value was 136 nM.

same assay, conditions: Eterna round: R107; input ligand: arginine 13.2 mM

Compared with “CGCCGUAAGGCGGUCGCUCCCACUCCGGAAGGAGCGCCCGCAAGGGCAGGUAGGUCGCCGGAGUGAUGUUCCGGUGGAGGGACCG [#2 Exclusion - Arginine A Attempt #7 (Inspired by Omei)]”, “UUAGCUCUAUAGAGCAAGAGGUCAACUGAUACCAGAGGCUAUAGCCUCCCUUGGCAGCGGAACGAGUGAUGUUCGAGACCUCAUU [AK6 SS Theophylline A]” is 5.1-fold higher in “apparent KD of K4 kissing-loop reporter” value: 161 nM for the first, 816 nM for the second.

Compared with “AUAAAUUUGUAGUGAUGUUGCAAGUUAGUCAAGGAUAUCAGGAAACUGAGAAGGUGAUAUCUCCUUUACUUGCAACUAGGAGGAG [KL-SSFMN-A11]”, “GUGCGGUGGAGGUUACCGCUACUCUGAGAAGGAGCGCAGAUGACUGCAGGUAGGUCGCUUAGAGCUUGCAGUGAUGUUGCAAGUU [Anquatbiat]” is 1.7-fold higher in “apparent KD of K4 kissing-loop reporter” value: 87.3 nM for the first, 147 nM for the second.

Compared with “GGAGGUUGGUGCGAUACCAGACCUGCAGUGAUGUUGCGCCAAAGUGAGUGAUGUUCACCGGUCCCUUGGCAGCGCGUCCCUUUAG [Same State Theophylline B GF 15]”, “CGGUUAUAGCAGGAUACCAGUACCCAUUAUGUACGUUUAUAGUAGAGUGAUGUUCUAAAGUACCCUUGGCAGCUUCCCGUGACCC [#23 K4 Theophylline B Exclusion]” is 3.7-fold lower in “apparent KD of K4 kissing-loop reporter” value: 729 nM for the first, 199 nM for the second.

With “UUAGGAGUGGGAGGAUAUCCUAAUGUGGGUGAUGUUAGCGAUGUUGAAAGUGUAGUGAUGUUGUGCGGAGAAGGUCCAGUGUUGA [BDazzled - #12 - Exc. FMN B]” the “apparent KD of K4 kissing-loop reporter” value was 141 nM.
